In the DeepSol protein solubility set:

Experiment: soluble on expression in E. coli; label from the status in PepcDB or PDB records

| Sequence | soluble on expression in E. coli |
| --- | --- |
| MRDEEPVRRLETIVEEERRVVVQGYVFDAEVSELKSGRTLLTMKITDYTNSILVKMFSRDKEDAELMSGVKKGMWVKVRGSVQNDTFVRDLVIIANDLNEIAANERQDTAPEGEKRVELHLHTPMSQMDAVTSVTKLIEQAKKWGHPAIAVTDHAVVQSFPEAYSAAKKHGMKVIYGLEANIVDDGVPIAYNETHRRLGSGSGPFHVTLLAQNETGLKNLFKLVSLSHIQYFHRVPRIPRSVLVKHRDGLLVGSGCDKGELFDNLIQKAPEEVEDIARFYDFLEVHPPDVYKPLIEMDYVKDEEMIKNIIRSIVALGEKLDIPVVATGNVHYLNPEDKIYRKILIHSQGGANPLNRHELPDVYFRTTNEMLDCFSFLGPEKAKEIVVDNTQKIASLIGDVKPIKDELYTPRIEGADEEIREMSYRRAKEIYGDPLPKLVEERLEKELKSIIGHGFAVIYLISHKLVKKSLDDGYLVGSRGSVGSSFVATMTEITEVNPLPPHYVCPNCKHSEFFNDGSVGSGFDLPDKNCPRCGTKYKKDGHDIPFETFLGFKGDKVPDIDLNFSGEYQPRAHNYTKVLFGEDNVYRAGTIGTVADKTAYGFVKAYASDHNLELRGAEIDRLAAGCTGVKRTTGQHPGGIIVVPDYMEIYDFTPIQYPADDTSSEWRTTHFDFHSIHDNLLKLDILGHDDPTVIRMLQDLSGIDPKTIPTDDPDVMGIFSSTEPLGVTPEQIMCNVGTIGIPEFGTRFVRQMLEETRPKTFSELVQISGLSHGTDVWLGNAQELIQNGTCTLSEVIGCRDDIMVYLIYRGLEPSLAFKIMESVRKGKGLTPEFEAEMRKHDVPEWYIDSCKKIKYMFPKAHAAAYVLMAVRIAYFKVHHPLLYYASYFTVRAEDFDLDAMIKGSAAIRKRIEEINAKGIQATAKEKSLLTVLEVALEMCERGFSFKNIDLYRSQATEFVIDGNSLIPPFNAIPGLGTNVAQAIVRAREEGEFLSKEDLQQRGKLSKTLLEYLESRGCLDSLPDHNQLSLFSGGHHHHHHHH | soluble |
| MRDVLEVLEFPRVRALLAERAKTPLGRELALALAPLPREEAEKRHELTGEALSYPYALPEAGTLREAYGRALAGARLSGPELLKAAKALEEAMALKEELLPLKNALSQVAEGIGDHTPFLERVRKALDEEGAVKDEASPRLAQIRRELRPLRQQILDRLYALMDRHREAFQDRFVTLRRERYCVPVRAGMAQKVPGILLDESESGATLFIEPFSVVKLNNRLQALRLKEEEEVNRILRDLSERLAKDEGVPKTLEALGLLDLVQAQAALARDLGLSRPAFGERYELYRAFHPLIPDAVRNSFALDEKNRILLISGPNMGGKTALLKTLGLAVLMAQSGLFVAAEKALLAWPDRVYADIGDEQSLQENLSTFAGHLRRLREMLEEATSHSLVLIDELGSGTDPEEGAALSQAILEALLERGVKGMVTTHLSPLKAFAQGREGIQNASMRFDLEALRPTYELVLGVPGRSYALAIARRLALPEEVLKRAEALLPEGGRLEALLERLEAERLALEAERERLRRELSQVERLRKALAEREARFEEERAERLKALEEEVRAELLKVEAELKALKEKARTEGKRDALRELMALRERYAKKAPPPPPPPGLAPGVLVEVPSLGKRGRVVELRGEEVLVQVGPLKMSLKPQEVKPLPEAEPGKPLLAKPRREVKEVDLRGLTVAEALLEVDQALEEARALGLSTLRLLHGKGTGALRQAIREALRRDKRVESFADAPPGEGGHGVTVVALRP | soluble |
| MREDVPRAVTTICSALQEQIEHGLLPHGSKLPAERKLSEVFDTTRITLREALLQLEAQGLIYREERRGWFISPPRLAYDLIRRSHFHAMVCAQGRVAHTQLLSARLQPASAMICEMLELPALSSVIQICRARRIDQRLVLYVEHYLRPELFPGILDHDLNESLIELYARCYDVHYGPVRFDVVPTALHADAAAALKVSLGSPGLRIARVNYDRKDRLIDCDLEYWRHDAIHVRAMVRDN | not soluble |
| MREEFLEEIPLDAPPEEAKELRTEVMTLNVGPQHPSTHGVLRLMVTLSGEEVLEVVPHIGYLHTGFEKTMEHRTYLQNITYTPRMDYLHSFAHDLAYALAVEKLLGAVVPPRAETIRVILNELSRLASHLVFLGTGLLDLGALTPFFYAFRERETILDLFEWVTGQRFHHNYIRIGGVKEDLPEEFVPELKKLLEVLPHRIDEYEALFAESPIFYERARGVGVIPPEVAIDLGLTGGSLRASGVNYDVRKAYPYSGYETYTFDVPLGERGDVFDRMLVRIREMRESVKIIKQALERLEPGPVRDPNPQITPPPRHLLETSMEAVIYHFKHYTEGFHPPKGEVYVPTESARGELGYYIVSDGGSMPYRVKVRAPSFVNLQSLPYACKGEQVPDMVAIIASLDPVMGDVDR | soluble |
| MREKLTVIKVGGKIVEEEATLLQLLNDFAAISGHKVLVHGGGRSATKIAAQLGIESKMVNGRRITDAETLKVVTMVYGGLVNKNIVAGLQARGVNALGLTGADMNVIRSVKRPVKEVDYGFVGDVEKVDASLLADLIHKGVVPVMAPLTHDGQGNMLNTNADTIAGETAKALSALFDVTLVYCFEKKGVLRDENDDDSVIPEITRAEFEQYVADGVIQGGMIPKLENSFEAINAGVTEVVITLASAIKDNEGTRIKK | not soluble |
| MRELGLEIPVEEVYNANSISLKDAVVHFGGGCTGEVISSEGLVLTNHHCGYGAIQQHSNVEHDYLTEGFWAMNRDAELPTPGLTVTFIDRILDVTSYVNDQLKKDEDPNGTNYLSPSYLSKVAERFAKDENIEVTPATKLELKAFYGGNKYYMFVKTVYSDIRMVGAPPSSIGKFGADTDNWMWPRHTGDFSLFRIYADKNGKPAAYSRDNVPLQVKKHLKISIAGVQEGDFTFVMGFPGRNWRYMISDEVEERMQTTNFMRQHVRGARQKVLMEQMLKDPAVRIHYASKYASSANYWKNAIGMNEGLVRLKVLDTKRKQQEELLARGREKGDDSYQKAFDEIRSIVAHRRDALYHQQALNEALVTALDFMRLPSTTEMVTALKSKNKEQIKTATENLKQAGEKYFASVPFPEVERMVAKTMLQTYASYIPEEQRINIFEIINSRFKGNIDSFVDACFEYSIFGNPKNFEKFIKKPSLYKIGHDWMVLFKYSITDGILKTAIAMKEANQNYDAAHKVWVKGMMDMRQEKGMPIYPDANSTLRLTYGQVLSYEPADGVVYDAHTTLKGVMEKEDPGNWEFVVPQKLKELYKARDYGRYGKDGEMPVCFIVNTDNTGGNSGSPVFNSKGQLVGTAFDRNYEGLTGDIAFRPSSQRAACVDIRYTLFIIDKYAGASHIIDELSIE | not soluble |
| MRELQTLLISCLKQERISGSMFRVLGKVVNHVVCEMFKHQDIAWDGLRDYIVSQSKTKFQRAVYIFQCLTTPLEDDEFVIHVMENLLPEIRIRLNPPRDLLVDNSCWVLAFTGAFCATIHLREFPSQAESVKEIANKMIDSVRELVEIGIEVGLVRRAFRDLENIVKNLNKWNGTGS | soluble |
| MRFSIVSLLHRLFLAGALALAAGAQAAPDPMGPPDKFVLDAATQTIDILKSDQNVKAGNLAHINQVVDAHILPFVNFQKTTRLAAGRYWRQATDTQKAELAKAFRGTLVRTYSGALTKVDNGTTIKLLPFRGDPNADDVVVRSLISQSNSQPVQVDYRLEKTPQGWRIYDMNVEGIWLIENYRNQFAQQINQNGIDGLIQALNQRNQAAALEHHHHHH | soluble |
| MRFTKVVGFLSVLGLAAVFPLTAQAEKAGTAGAGEWDKLGTYTYTYSSPTVYSTGGDFRVCLSGSTPFSVSLHLYEDDPGDNPDDYVGANYFSPGECHTFGSIGKFVDGSNNKAEFFVTDYSGKSKTVTFYDLEHHHHHH | not soluble |
| MRGASGGMIQCQYEVHISKNDTYSMDRPHFHEDIEIVLCIAGEGVFFLEPEVFPLYRGQLFLIDSSILHRSVANEEYRCMVFHISSEMLHEFSSLQSNFQARSKRSGLVATLTEEATKYLESLYGKLAEDFGNEFGGDIRQTITLLTFLLTCFSHFNEAEDGEVHTNPSLDKVAPILTYIQEHLGEAMTTQSIADAFYMSKYHLCHIFKEGTGFSLMDYVINCRILKARSLLRNGMRVQEVGENVGFRNNEHFIRTFKKLTGTPPKRYAMMYKDSDQNAQRELVVVEGKDGKIIEGIKA | not soluble |
| MRGEAGELAVSSGEIATGALSPEKQQEQELMGKLAATGKLPARPASSFLQKKLQQRKFFDSGDYAMDKSKAGTGLGSKPHPLAGGPPPAAPPVVAQRSPAPAATTPSPSASPISQQTNRPSSDRNSDDDNLQIPRPDTVPQRKASIINPSVHCKLSPAPHVQHHDAASPNATSE | soluble |
